Results as given in patent US20130344089A1.

Tests used:
[1] = target: Aβ42 A21C/A30C (Aβ42-CC) monomers (UniProt P05067); assay: direct ELISA, Aβ42-CC monomers coated at pH 7.4
[2] = target: Aβ42 A21C/A30C (Aβ42-CC) monomers (UniProt P05067); assay: direct ELISA, Aβ42-CC monomers coated at pH 10.4
[3] = target: Aβ42 A21C/A30C (Aβ42-CC) monomers (UniProt P05067); assay: direct ELISA, Aβ42-CC monomers coated at pH 10.4 with 10 mM TCEP (reduced form)

Substance: monoclonal antibody 6E10 (Covance Research Products)
- total Ig titer (log10) [1]: 2.1 log10 titer
- total Ig titer (log10) [2]: 2 log10 titer
- total Ig titer (log10) [3]: 2.1 log10 titer
